Patent US20250115641A1 (H LEE MOFFITT CANCER CENTER AND RESEARCH INSTITUTE, published 2025)
Each block holds one binder with its values, some of them ahead of it. Bridge positions count the residues as written; N and C are the ends. Square brackets hold non-standard residues; d marks the D form. Primed or numbered codes have the meaning given here. S5 = C=CCCC[C@](C)(N)C(=O)O; Nle = CCCC[C@H](N)C(=O)O; FITC′ = fluorescein; βAla = NCCC(=O)O

Tests used:
[1] = target: T1, human NLRP3^PYD (residues 3-110, C-terminal 6 x histidine) (human, UniProt Q96P20 3-110); assay: fluorescence polarization binding assay, FITC-labelled peptide
T1 construct: range 3-110; also called His6-NLRP3^PYD

[2] = target: T2, human N-terminally GST tagged ASC^PYD (human, UniProt Q9ULZ3 1-106); assay: as above
T2 construct: range 1-106; Expressed in E. coli from pGEX-4T1; also called GST-ASC^PYD; not shown: N-terminal GST (glutathione S-transferase) tag of the pGEX-4T1 vector
T2 sequence (Q9ULZ3 1-106): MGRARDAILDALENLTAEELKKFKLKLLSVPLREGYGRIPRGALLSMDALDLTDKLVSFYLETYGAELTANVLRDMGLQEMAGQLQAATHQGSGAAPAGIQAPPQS

T1 sequence (Q96P20 other isoform, or with tags, fused parts or gaps limits assumed): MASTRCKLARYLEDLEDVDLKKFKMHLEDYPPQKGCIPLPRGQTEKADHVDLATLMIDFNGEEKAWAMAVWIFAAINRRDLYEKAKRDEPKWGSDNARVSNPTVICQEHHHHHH

- fold increase of binding affinity against fSAH-POP1-10 [1]: 10 fold
B1: fSAH-POP1-12 (peptide)
peptide: {FITC′}-[βAla]Q[S5]LRK[S5]QWKLWTA-NH2
modifications: staple 3-7
notes: also called peptide 63

- fold change of KD against fSAH-POP1-5 (lower) [1]: 2 fold
B2: fSAH-POP1-6 (peptide)
peptide: XQXLKKXKXKLWTA
modifications: N-terminal fluorescein (FITC) on β-alanine; S5 = (S)-2-(4-pentenyl)alanine residues covalently linked (hydrocarbon staple); made on Rink amide resin
notes: also called peptide 57

- binding result [2]: binds
B3: fSAH-POP1-16 (peptide)
peptide: {FITC′}-[βAla]Q[S5]LRR[S5]QWKLWTS-NH2
modifications: staple 3-7
notes: also called peptide 67

- binding result [1]: binds
B4: fSAH-POP1-4 (peptide)
peptide: AEXLKKXKXKLGTV
modifications: N-terminal fluorescein (FITC) on β-alanine; S5 = (S)-2-(4-pentenyl)alanine residues covalently linked (hydrocarbon staple); made on Rink amide resin
notes: FITC-labelled stapled peptide; also called peptide 54

- binding result [1]: binds
B5: fPOP1-H2 (peptide)
peptide: {FITC′}-[βAla]EELKKFK[Nle]KLGTV-NH2
notes: also called peptide 55

- fold change of KD against fSAH-POP1-4 (higher) [1]: 1.5 fold
B6: fSAH-POP1-5 (peptide)
peptide: AQXLKKXKXKLGTA
modifications: N-terminal fluorescein (FITC) on β-alanine; S5 = (S)-2-(4-pentenyl)alanine residues covalently linked (hydrocarbon staple); made on Rink amide resin
notes: also called peptide 56
